Results from patent US20250325664A1, “COMBINATION THERAPY WITH AN ANTI-COLONY STIMULATING FACTOR 1 RECEPTOR ANTIBODY AND A JAK INHIBITOR” (Incyte Corporation, priority 2024, published 2025).

How the values were obtained:
[1] = test system: subjects with cGVHD; conditions: human, in vivo
[2] = test system: subjects with cGVHD; experiment: Clinical study of axatilimab given as a single agent to subjects with cGVHD after at least two prior lines of systemic therapy
[3] = Population PK/PD model of axatilimab: post-hoc exposures and pediatric simulation; set-up: species or system human; conditions: five participants aged 12 to 17 years in cGVHD studies vs adults of same dose groups
Text: In addition, the developed population PK/PD model for axatilimab was extrapolated to simulate PK in pediatric patients aged 12 to 17 years, using standard allometric exponents of 0.75 for clearance-related parameters and 1.0 for volume of distribution-related parameters.

axatilimab: humanized IgG4 monoclonal antibody that binds CSF-1R; heavy chain SEQ ID NO:2, light chain SEQ ID NO:3
severity of infections [1]: Most infections were mild
participants with treatment-emergent adverse events (TEAEs) ([2]; 0.3 mg/kg Q2W): 6%
reported CMV infections ([2]; 0.3 mg/kg Q2W): no CMV infections were reported
participants with reduction in modified Lee Symptom Scale (mLSS) score ≤7 points ([2]; 0.3 mg/kg Q2W cohort, first 6 cycles): 55%
frequency of treatment-related AEs, any grade and ≥Grade 3 ([2]; 0.3 mg/kg Q2W vs 1 mg/kg Q2W vs 3 mg/kg Q4W): showed dose dependency, with lowest incidence at 0.3 mg/kg Q2W
objective response rate (ORR), primary endpoint ([2]; 0.3 mg/kg Q2W, first 6 cycles): 73.8%
participants with treatment-emergent adverse events (TEAEs) ([2]; 1 mg/kg Q2W): 22%
objective response rate (ORR), primary endpoint ([2]; 1 mg/kg Q2W, first 6 cycles): 66.7%
participants with treatment-emergent adverse events (TEAEs) ([2]; 3 mg/kg Q4W): 18%
objective response rate (ORR), primary endpoint ([2]; 3 mg/kg Q4W, first 6 cycles): 50%
most common TEAEs ([2]; all dose cohorts): elevated aspartate aminotransferase/alanine aminotransferase (AST/ALT), creatine phosphokinase (CPK), lipase, amylase, and lactate dehydrogenase levels as well as periorbital edema
reported CMV infections (number) ([2]; higher dose cohorts): 2
post-hoc PK exposures in participants aged 12 to 17 years [3]: comparable to those observed in adult participants from the same dose groups
